{"source": "patent US10597433B2", "about": "“Peptides and combination of peptides for use in immunotherapy against small cell lung cancer and other cancers” (Immatics Biotechnologies GmbH, priority 2015, dated 2020)"}
{"molecular_target": "HLA-A*02:01 (Homo sapiens, UniProt P04439, D140Y/D185E/D98H/E176V/E277Q/G131W/G231S/I119V/I121R/I166T/I218V/L300P/L318F/N151K/N90K/P208A/P217A/Q86G/Q94H/R138H/R169H/T345S)", "assay": "MHC binding assay: UV-ligand exchange with ELISA detection of β2m of stabilized MHC complexes", "settings": "binding to HLA-A*02:01", "excerpt": "Candidate peptides for T cell based therapies according to the present invention were further tested for their MHC binding capacity (affinity). The individual peptide-MHC complexes were produced by UV-ligand exchange, where a UV-sensitive peptide is cleaved upon UV-irradiation, and exchanged with the peptide of interest as analyzed. Only peptide candidates that can effectively bind and stabilize the peptide-receptive MHC molecules prevent dissociation of the MHC complexes. To determine the yield of the exchange reaction, an ELISA was performed based on the detection of the light chain (β2m) of stabilized MHC complexes. The assay was performed as generally described in Rodenko et al. (Rodenko et al., 2006).\n96 well MAXISorp plates (NUNC) were coated over night with 2 μg/ml streptavidin in PBS at room temperature, washed 4× and blocked for 1 h at 37° C. in 2% BSA containing blocking buffer. Refolded HLA-A*02:01/MLA-001 monomers served as standards, covering the range of 15-500 ng/ml. Peptide-MHC monomers of the UV-exchange reaction were diluted 100 fold in blocking buffer. Samples were incubated for 1 h at 37° C., washed four times, incubated with 2 μg/ml HRP conjugated anti-β2m for 1 h at 37° C., washed again and detected with TMB solution that is stopped with […]. Absorption was measured at 450 nm. Candidate peptides that show a high exchange yield (preferably higher than 50%, most preferred higher than 75%) are generally preferred for a generation and production of antibodies or fragments thereof, and/or T cell receptors or fragments thereof, as they show sufficient avidity to the MHC molecules and prevent dissociation of the MHC complexes."}
{"substance": "61 (YQAPYFLTV; listed as Homo sapiens) [compound 61]", "Peptide exchange (MHC class I binding score, peptide exchange yield)": "+++ (≥50 = +++)"}
{"substance": "18 (ALGEISVSV; listed as Homo sapiens) [compound 18]", "Peptide exchange (MHC class I binding score, peptide exchange yield)": "+++ (≥50 = +++)"}
{"substance": "52 (ILASFMLTGV; listed as Homo sapiens) [compound 52]", "Peptide exchange (MHC class I binding score, peptide exchange yield)": "++++ (≥75% = ++++)"}
{"substance": "97 (ALLDGTVFEI; listed as Homo sapiens) [compound 97]", "Peptide exchange (MHC class I binding score, peptide exchange yield)": "+++ (≥50 = +++)"}
{"substance": "51 (ILDEAGVKYFL; listed as Homo sapiens) [compound 51]", "Peptide exchange (MHC class I binding score, peptide exchange yield)": "+++ (≥50 = +++)"}
{"substance": "94 (ALFPVAEDISL; listed as Homo sapiens) [compound 94]", "Peptide exchange (MHC class I binding score, peptide exchange yield)": "+++ (≥50 = +++)"}
{"substance": "31 (RLLQDPVGV; listed as Homo sapiens) [compound 31]", "Peptide exchange (MHC class I binding score, peptide exchange yield)": "++++ (≥75% = ++++)"}
{"substance": "65 (VMYDLITEL; listed as Homo sapiens) [compound 65]", "Peptide exchange (MHC class I binding score, peptide exchange yield)": "+++ (≥50 = +++)"}
{"substance": "56 (SLFSQMGSQYEL; listed as Homo sapiens) [compound 56]", "Peptide exchange (MHC class I binding score, peptide exchange yield)": "+++ (≥50 = +++)"}
{"substance": "114 (ALLEPGGVLTI; listed as Homo sapiens) [compound 114]", "Peptide exchange (MHC class I binding score, peptide exchange yield)": "+++ (≥50 = +++)"}
{"substance": "91 (KLQDGVHII; listed as Homo sapiens) [compound 91]", "Peptide exchange (MHC class I binding score, peptide exchange yield)": "+++ (≥50 = +++)"}
{"substance": "74 (FLDSLSPSV; listed as Homo sapiens) [compound 74]", "Peptide exchange (MHC class I binding score, peptide exchange yield)": "+++ (≥50 = +++)"}
{"substance": "70 (TLLWKLVEV; listed as Homo sapiens) [compound 70]", "Peptide exchange (MHC class I binding score, peptide exchange yield)": "++ (≥20% = ++)"}
{"substance": "98 (ALVDHLNVGV; listed as Homo sapiens) [compound 98]", "Peptide exchange (MHC class I binding score, peptide exchange yield)": "+++ (≥50 = +++)"}
{"substance": "86 (KVIDYVPGI; listed as Homo sapiens) [compound 86]", "Peptide exchange (MHC class I binding score, peptide exchange yield)": "+++ (≥50 = +++)"}
{"substance": "50 (FLLSQIVAL; listed as Homo sapiens) [compound 50]", "Peptide exchange (MHC class I binding score, peptide exchange yield)": "+++ (≥50 = +++)"}
{"substance": "121 (YMLEHVITL; listed as Homo sapiens) [compound 121]", "Peptide exchange (MHC class I binding score, peptide exchange yield)": "+++ (≥50 = +++)"}
{"substance": "105 (SMYDKVLML; listed as Homo sapiens) [compound 105]", "Peptide exchange (MHC class I binding score, peptide exchange yield)": "++++ (≥75% = ++++)"}
{"substance": "100 (VADPETRTV; listed as Homo sapiens) [compound 100]", "Peptide exchange (MHC class I binding score, peptide exchange yield)": "+ (≥10% = +)"}
{"substance": "45 (SLSGEIILHSV; listed as Homo sapiens) [compound 45]", "Peptide exchange (MHC class I binding score, peptide exchange yield)": "++ (≥20% = ++)"}
{"substance": "44 (ALIVGIPSV; listed as Homo sapiens) [compound 44]", "Peptide exchange (MHC class I binding score, peptide exchange yield)": "++++ (≥75% = ++++)"}
{"substance": "46 (ALWVAVPKA; listed as Homo sapiens) [compound 46]", "Peptide exchange (MHC class I binding score, peptide exchange yield)": "+++ (≥50 = +++)"}
{"substance": "117 (FLLDSAPLNV; listed as Homo sapiens) [compound 117]", "Peptide exchange (MHC class I binding score, peptide exchange yield)": "++++ (≥75% = ++++)"}
{"substance": "116 (ALLVRLQEV; listed as Homo sapiens) [compound 116]", "Peptide exchange (MHC class I binding score, peptide exchange yield)": "++++ (≥75% = ++++)"}
{"substance": "14 (ILIETKLVL; listed as Homo sapiens) [compound 14]", "Peptide exchange (MHC class I binding score, peptide exchange yield)": "+++ (≥50 = +++)"}
{"substance": "125 (LLSEPSLLRTV; listed as Homo sapiens) [compound 125]", "Peptide exchange (MHC class I binding score, peptide exchange yield)": "+++ (≥50 = +++)"}
{"substance": "93 (ALRETVVEV; listed as Homo sapiens) [compound 93]", "Peptide exchange (MHC class I binding score, peptide exchange yield)": "+++ (≥50 = +++)"}
{"substance": "3 (VLAEIDPKQLV; listed as Homo sapiens) [compound 3]", "Peptide exchange (MHC class I binding score, peptide exchange yield)": "+++ (≥50 = +++)"}
{"substance": "84 (KMFENEFLL; listed as Homo sapiens) [compound 84]", "Peptide exchange (MHC class I binding score, peptide exchange yield)": "+++ (≥50 = +++)"}
{"substance": "19 (VLLTTAVEV; listed as Homo sapiens) [compound 19]", "Peptide exchange (MHC class I binding score, peptide exchange yield)": "+++ (≥50 = +++)"}
{"substance": "102 (ALFARPDLLLL; listed as Homo sapiens) [compound 102]", "Peptide exchange (MHC class I binding score, peptide exchange yield)": "++++ (≥75% = ++++)"}
{"substance": "72 (KAIGSLKEV; listed as Homo sapiens) [compound 72]", "Peptide exchange (MHC class I binding score, peptide exchange yield)": "+++ (≥50 = +++)"}
{"substance": "122 (SMMPDELLTSL; listed as Homo sapiens) [compound 122]", "Peptide exchange (MHC class I binding score, peptide exchange yield)": "+++ (≥50 = +++)"}
{"substance": "85 (FAYDGKDYLTL; listed as Homo sapiens) [compound 85]", "Peptide exchange (MHC class I binding score, peptide exchange yield)": "+++ (≥50 = +++)"}
{"substance": "32 (ALTSLELEL; listed as Homo sapiens) [compound 32]", "Peptide exchange (MHC class I binding score, peptide exchange yield)": "+++ (≥50 = +++)"}
{"substance": "12 (MLFEGLDLVSA; listed as Homo sapiens) [compound 12]", "Peptide exchange (MHC class I binding score, peptide exchange yield)": "+++ (≥50 = +++)"}
{"substance": "89 (IQHDLIFSL; listed as Homo sapiens) [compound 89]", "Peptide exchange (MHC class I binding score, peptide exchange yield)": "+++ (≥50 = +++)"}
{"substance": "60 (VVSGATETL; listed as Homo sapiens) [compound 60]", "Peptide exchange (MHC class I binding score, peptide exchange yield)": "++++ (≥75% = ++++)"}
{"substance": "15 (SLLTAISEV; listed as Homo sapiens) [compound 15]", "Peptide exchange (MHC class I binding score, peptide exchange yield)": "+++ (≥50 = +++)"}
{"substance": "27 (SLDIITITV; listed as Homo sapiens) [compound 27]", "Peptide exchange (MHC class I binding score, peptide exchange yield)": "++++ (≥75% = ++++)"}
{"substance": "47 (GLLEALLKI; listed as Homo sapiens) [compound 47]", "Peptide exchange (MHC class I binding score, peptide exchange yield)": "+++ (≥50 = +++)"}
{"substance": "68 (FLFPVYPLI; listed as Homo sapiens) [compound 68]", "Peptide exchange (MHC class I binding score, peptide exchange yield)": "+++ (≥50 = +++)"}
{"substance": "35 (FMGDVFINV; listed as Homo sapiens) [compound 35]", "Peptide exchange (MHC class I binding score, peptide exchange yield)": "++++ (≥75% = ++++)"}
{"substance": "124 (SLITDLQTI; listed as Homo sapiens) [compound 124]", "Peptide exchange (MHC class I binding score, peptide exchange yield)": "+++ (≥50 = +++)"}
{"substance": "92 (YLQDYTDRV; listed as Homo sapiens) [compound 92]", "Peptide exchange (MHC class I binding score, peptide exchange yield)": "+++ (≥50 = +++)"}
{"substance": "40 (GLLEVQVEV; listed as Homo sapiens) [compound 40]", "Peptide exchange (MHC class I binding score, peptide exchange yield)": "+++ (≥50 = +++)"}
{"substance": "57 (VLIGDVLVAV; listed as Homo sapiens) [compound 57]", "Peptide exchange (MHC class I binding score, peptide exchange yield)": "++++ (≥75% = ++++)"}
{"substance": "25 (GLSETILAV; listed as Homo sapiens) [compound 25]", "Peptide exchange (MHC class I binding score, peptide exchange yield)": "++++ (≥75% = ++++)"}
{"substance": "16 (VILDLPLVI; listed as Homo sapiens) [compound 16]", "Peptide exchange (MHC class I binding score, peptide exchange yield)": "+++ (≥50 = +++)"}
